No end group written: not given here.
Legend:
[1] = target: Arc(207-278) binding to TARPγ2 peptide (Rattus norvegicus, UniProt Q63053); conditions: Figure S5C; chlorpromazine data not shown
Arc N-lobe (207-277) = target: T1, Arc N-lobe (207-277) (rat, UniProt Q63053 207-277); test: pull-down
T1 sequence (looked up): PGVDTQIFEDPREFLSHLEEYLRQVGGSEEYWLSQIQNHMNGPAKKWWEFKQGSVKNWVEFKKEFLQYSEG

[2] = target: T2, RnArc (207-370), Arc GAG domain, wild type (rat, UniProt Q63053 207-370); test: fluorescence polarisation
T2 sequence (looked up): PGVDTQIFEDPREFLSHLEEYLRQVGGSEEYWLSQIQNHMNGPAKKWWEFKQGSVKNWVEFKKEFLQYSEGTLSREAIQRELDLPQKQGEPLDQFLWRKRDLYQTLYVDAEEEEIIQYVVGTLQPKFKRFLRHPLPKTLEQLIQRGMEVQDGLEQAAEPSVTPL

[3] = target: T2, RnArc (207-370), Arc GAG domain, wild …; test: pull-down

For `CN1CCN(CCCN2c3ccccc3Sc3ccc(C(F)(F)F)cc32)CC1` [Trifluoperazine], the “inhibition of Arc N-lobe binding” value [1] was “inhibited binding, but with lower affinity”.

TGLIENRPQSPAAGRTPVFVSPTPPPPPPPLPSALSTSSLRAS (domain or fragment, mouse, UniProt Q8R5H6 301-343, looked up) [GST-WAVE1 (aa301-343)]: binds (Arc N-lobe (207-277)).

RTPVFV (peptide, UniProt Q8R5H6 315-320, looked up) [WAVE1 peptide (aa315-320)]: binds [2].

B1: GST-TARPγ2 cytoplasmic tail (203-323) (domain or fragment, mouse, UniProt O88602 203-323, looked up)
chain: DRHKQLRATARATDYLQASAITRIPSYRYRYQRRSRSSSRSTEPSHSRDASPVGVKGFNTLPSTEISMYTLSRDPLKAATTPTATYNSDRDNSFLQVHNCIQKDSKDSLHANTANRRTTPV
B1: binds [2].

{GST}-DRHKQLRATARATDYLQASAITRIPSYRYRYQRRSRSSSRSTEPS (domain or fragment, mouse, UniProt O88602 203-247, looked up) [GST-TARPγ2 fragment (203-247)]: binds [3].

— paper PMC4409568 (Neuron, 2015)
